Article PMC6838200 (2019)

Columns and labels:
[1] = biological target: T1, Spa2-C (Spa2 C-terminal region, 1306-1466aa) (S. cerevisiae, UniProt P23201 1306-1466); assay: SPR; bivalent model, koff1
T1 chain: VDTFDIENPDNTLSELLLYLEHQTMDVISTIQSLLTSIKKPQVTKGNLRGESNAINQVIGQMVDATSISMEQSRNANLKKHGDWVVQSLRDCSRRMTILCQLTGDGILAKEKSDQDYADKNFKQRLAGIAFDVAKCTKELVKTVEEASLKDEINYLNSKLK

[2] = biological target: T1, Spa2-C (Spa2 C-terminal region, …); assay: SPR; bivalent model, koff2 (second site)

koff [1]: 0.046 s⁻¹
koff [2]: 0.00266 s⁻¹
B1: Aip5-N271 (domain or fragment)
chain: MVESLTVENQEHNVQPPSVTSAGDSYSTLATDLPLPSTNDIIESRDQLTESDLDEAINATENFAQELSSQRKSSKLKGHKKKNQGQIKANRDRDTIVKLSSSVGETEEASTRDAISHDLERKDDVIEIATDTINDATESPTQIPIDVNVVIKETSTNNVAEGTENVPPIKESTGIEVGNSPITRRKKNKKKKTTNRRGRNSSNPADTTDLSKQSTLDSILVGIEEYLQEDGSKNEDIKVNIVQDEPVNVEKMDIRTRNESSDKTFDIDVPN
